Earlier results in patent US6835389B1, “Powder Composition for nasal administration” (Teijin Limited, priority 1998, dated 2004).

Details: 10 units of insulin to rabbits, nasal, Example 4 of Kokoku No. 62-42888

insulin
absorption rate calculated from the AUC: ≤ 10% | maximum blood concentration: ≤ 200 μU/ml | maximum blood concentration relative to that of the injection administration: about 20%
